Data from US20260242735A1.

Columns and labels:
Test in all cases: alanine scan, flow cytometry, HEK293-T
[1] = molecular target: human CD33 K159A (human) (UniProt P20138)
[2] = molecular target: human CD33 Y129A (human) (UniProt P20138)
[3] = molecular target: human CD33 R62A (human) (UniProt P20138)
[4] = molecular target: human CD33 S124A (human) (UniProt P20138)
[5] = molecular target: human CD33 T192A (human) (UniProt P20138)
[6] = molecular target: human CD33 G151A (human) (UniProt P20138)
[7] = molecular target: human CD33 S166A (human) (UniProt P20138)
[8] = molecular target: human CD33 P189A (human) (UniProt P20138)
[9] = molecular target: human CD33 S131A (human) (UniProt P20138)
[10] = molecular target: human CD33 K52A (human) (UniProt P20138)
[11] = molecular target: human CD33 L148A (human) (UniProt P20138)
[12] = molecular target: human CD33 Y59A (human) (UniProt P20138)
[13] = molecular target: human CD33 G123A (human) (UniProt P20138)
[14] = molecular target: human CD33 Q80A (human) (UniProt P20138)
[15] = molecular target: human CD33 Y127A (human) (UniProt P20138)
[16] = molecular target: human CD33 E85A (human) (UniProt P20138)
[17] = molecular target: human CD33 S102A (human) (UniProt P20138)
[18] = molecular target: human CD33 R190A (human) (UniProt P20138)
[19] = molecular target: human CD33 S104A (human) (UniProt P20138)
[20] = molecular target: human CD33 S158A (human) (UniProt P20138)
[21] = molecular target: human CD33 F90A (human) (UniProt P20138)
[22] = molecular target: human CD33 S181A (human) (UniProt P20138)
[23] = molecular target: human CD33 S71A (human) (UniProt P20138)
[24] = molecular target: human CD33 I105A (human) (UniProt P20138)
[25] = molecular target: human CD33 S194A (human) (UniProt P20138)
[26] = molecular target: human CD33 S115A (human) (UniProt P20138)
[27] = molecular target: human CD33 S135A (human) (UniProt P20138)
[28] = molecular target: human CD33 D140A (human) (UniProt P20138)
[29] = molecular target: human CD33 Q83A (human) (UniProt P20138)
[30] = molecular target: human CD33 L92A (human) (UniProt P20138)
[31] = molecular target: human CD33 I149A (human) (UniProt P20138)
[32] = molecular target: human CD33 L153A (human) (UniProt P20138)
[33] = molecular target: human CD33 F118A (human) (UniProt P20138)
[34] = molecular target: human CD33 E170A (human) (UniProt P20138)
[35] = molecular target: human CD33 R69A (human) (UniProt P20138)
[36] = molecular target: human CD33 A168S (human) (UniProt P20138)
[37] = molecular target: human CD33 R111A (human) (UniProt P20138)
[38] = molecular target: human CD33 Y49A (human) (UniProt P20138)
[39] = molecular target: human CD33 C169A (human) (UniProt P20138)
[40] = molecular target: human CD33 K126A (human) (UniProt P20138)
[41] = molecular target: human CD33 G172A (human) (UniProt P20138)
[42] = molecular target: human CD33 A65S (human) (UniProt P20138)
[43] = molecular target: human CD33 T191A (human) (UniProt P20138)
[44] = molecular target: human CD33 H157A (human) (UniProt P20138)
[45] = molecular target: human CD33 R110A (human) (UniProt P20138)
Sequence of human CD33 R110A (human) (P20138 18-364 R110A limits assumed): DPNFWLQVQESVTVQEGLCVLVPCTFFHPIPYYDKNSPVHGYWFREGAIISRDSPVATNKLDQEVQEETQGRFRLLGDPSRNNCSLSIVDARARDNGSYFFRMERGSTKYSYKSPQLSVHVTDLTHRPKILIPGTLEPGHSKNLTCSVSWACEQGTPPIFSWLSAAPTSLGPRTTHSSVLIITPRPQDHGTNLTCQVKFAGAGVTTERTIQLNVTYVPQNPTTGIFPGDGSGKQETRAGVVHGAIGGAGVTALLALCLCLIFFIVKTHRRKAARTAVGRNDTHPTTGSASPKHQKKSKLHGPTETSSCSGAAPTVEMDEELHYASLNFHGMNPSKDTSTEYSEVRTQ

Sequence of human CD33 L92A (human) (P20138 18-364 L92A limits assumed): as the sequence (P20138 18-364 R110A limits assumed) above, with L75A, A93R counted along it
Sequence of human CD33 D140A (human) (P20138 18-364 D140A limits assumed): as the sequence (P20138 18-364 R110A limits assumed) above, with A93R, D123A counted along it
Sequence of human CD33 L153A (human) (P20138 18-364 L153A limits assumed): as the sequence (P20138 18-364 R110A limits assumed) above, with A93R, L136A counted along it
Sequence of human CD33 S135A (human) (P20138 18-364 S135A limits assumed): as the sequence (P20138 18-364 R110A limits assumed) above, with A93R, S118A counted along it
Sequence of human CD33 R69A (human) (P20138 18-364 R69A limits assumed): as the sequence (P20138 18-364 R110A limits assumed) above, with R52A, A93R counted along it
Sequence of human CD33 G172A (human) (P20138 18-364 G172A limits assumed): as the sequence (P20138 18-364 R110A limits assumed) above, with A93R, G155A counted along it
Sequence of human CD33 P189A (human) (P20138 18-364 P189A limits assumed): as the sequence (P20138 18-364 R110A limits assumed) above, with A93R, P172A counted along it
Sequence of human CD33 S194A (human) (P20138 18-364 S194A limits assumed): as the sequence (P20138 18-364 R110A limits assumed) above, with A93R, S177A counted along it
Sequence of human CD33 T191A (human) (P20138 18-364 T191A limits assumed): as the sequence (P20138 18-364 R110A limits assumed) above, with A93R, T174A counted along it
Sequence of human CD33 Y59A (human) (P20138 18-364 Y59A limits assumed): as the sequence (P20138 18-364 R110A limits assumed) above, with Y42A, A93R counted along it
Sequence of human CD33 Y129A (human) (P20138 18-364 Y129A limits assumed): as the sequence (P20138 18-364 R110A limits assumed) above, with A93R, Y112A counted along it
Sequence of human CD33 G151A (human) (P20138 18-364 G151A limits assumed): as the sequence (P20138 18-364 R110A limits assumed) above, with A93R, G134A counted along it
Sequence of human CD33 G123A (human) (P20138 18-364 G123A limits assumed): as the sequence (P20138 18-364 R110A limits assumed) above, with A93R, G106A counted along it

Question: What does the source list for Refmab #7 (WM53) (antibody)?
Answer: Mean % WT Binding [1]: 110 % WT binding; Mean % WT Binding [2]: 155 % WT binding; Mean % WT Binding [3]: 114 % WT binding; Mean % WT Binding [4]: 81.8 % WT binding; Mean % WT Binding [5]: 102 % WT binding; Mean % WT Binding [6]: 121 % WT binding; Mean % WT Binding [7]: 108 % WT binding; Mean % WT Binding [8]: 119 % WT binding; Mean % WT Binding [9]: 114 % WT binding; Mean % WT Binding [10]: 76.8 % WT binding; Mean % WT Binding [11]: 96.7 % WT binding; Mean % WT Binding [12]: 127 % WT binding; Mean % WT Binding [13]: 76 % WT binding; Mean % WT Binding [14]: 124 % WT binding; Mean % WT Binding [15]: 175 % WT binding; Mean % WT Binding [16]: 126 % WT binding; Mean % WT Binding [17]: 111 % WT binding; Mean % WT Binding [18]: 123 % WT binding; Mean % WT Binding [19]: 117 % WT binding; Mean % WT Binding [20]: 113 % WT binding; Mean % WT Binding [21]: 83.3 % WT binding; Mean % WT Binding [22]: 86.7 % WT binding; Mean % WT Binding [23]: 104 % WT binding; Mean % WT Binding [24]: 56.1 % WT binding; Mean % WT Binding [25]: 112 % WT binding; Mean % WT Binding [26]: 95.1 % WT binding; Mean % WT Binding [27]: 101 % WT binding; Mean % WT Binding [28]: 116 % WT binding; Mean % WT Binding [29]: 120 % WT binding; Mean % WT Binding [30]: 89.9 % WT binding; Mean % WT Binding [31]: 96.9 % WT binding; Mean % WT Binding [32]: 101 % WT binding; Mean % WT Binding [33]: 3.2 % WT binding; Mean % WT Binding [34]: 118 % WT binding; Mean % WT Binding [35]: 146 % WT binding; Mean % WT Binding [36]: 117 % WT binding; Mean % WT Binding [37]: 94 % WT binding; Mean % WT Binding [38]: 13.7 % WT binding; Mean % WT Binding [39]: 90 % WT binding; Mean % WT Binding [40]: 156 % WT binding; Mean % WT Binding [41]: 92.1 % WT binding; Mean % WT Binding [42]: 117 % WT binding; Mean % WT Binding [43]: 116 % WT binding; Mean % WT Binding [44]: 116 % WT binding; Mean % WT Binding [45]: 95.9 % WT binding
